For 2 substances, stoichiometry N results are on record in paper PMC12802151.

Experiment [1] concerns the target Beilong paramyxovirus (HMC isolate) receptor-binding protein, β-propeller head domain with C-terminal extension (BeiV(HMC)-RBPβ+) (Beilong paramyxovirus (BeiV), isolate from human mesangial cells (HMC)). Description: crystal structure; BeiV(HMC)-RBPβ+ at 3.2 mg/mL, sitting-drop vapor diffusion at room temperature, 0.2 M potassium thiocyanate, 0.1 M sodium cacodylate pH 6.5, 8% poly-γ-glutamic acid polymer; 3.5 Å; a dimer in the asymmetric unit.

In experiment [2] the target is J paramyxovirus receptor-binding protein, β-propeller head domain with extended C-terminus (JPV-RBPβ+) (J paramyxovirus (JPV)). Put plainly: crystal structure; JPV-RBPβ+ at 3.5 mg/mL, sitting-drop vapor diffusion at room temperature, 0.1 M tris/bicine pH 8.5, 0.2 M ammonium sulfate, Morpheus precipitant mix 4; 2.2 Å; a dimer in the asymmetric unit.

As usually defined, the stoichiometry N is a count of units in the complex or per binding partner. In turn, “Beilong paramyxovirus (HMC isolate) receptor-binding protein, β-propeller head domain with C-terminal extension (BeiV(HMC)-RBPβ+) (domain or fragment)” came in with a stoichiometry N in experiment [1] of 2.
Consider “J paramyxovirus receptor-binding protein, β-propeller head domain with extended C-terminus (JPV-RBPβ+) (domain or fragment)”, for which the stoichiometry N in experiment [2] was 2.
